This is an account of results in patent US12331110B2, “Monoclonal antibodies against endotrophin and the use thereof” (THE BOARD OF REGENTS OF THE UNIVERSITY OF TEXAS SYSTEM, priority 2018, dated 2025).

The subject of this test is ETP transfected MCF7 cells. As to the kind of experiment: ETP transfected MCF7 tumor growth in nude mice. The test is classed as in vivo. The method, then: FIGS. 5A-C. Antibody effects on ETP-MCF7 cells in vivo. (FIG. 5A) ETP transfected MCF7 cells (2×10^6 cells) were implanted into nude mice. An estradiol pellet (0.72 mg) was implanted into nude mice. Then (i) 20 mg/kg ETPmAb4, (ii) 10 mg/kg ETPmAb4 with 10 mg/kg control IgG, (iii) 5 mg/kg ETPmAb4 with 15 mg/kg control IgG, (iv) 2 mg/kg ETPmAb4 with 18 mg/kg control IgG, and (v) 20 mg/kg control IgG (twice a week) were injected after 10-days implantation for 5-weeks. Tumor volume was determined by caliper measurement. Data was represented as mean±SD (n=5/group), and *** p<0.0001 by ANOVA followed by Newman-Keuls multiple comparison test. (FIG. 5B) Total RNA was prepared from tumor tissues from ETP transfected MCF7, ETPmAb4 treatment mice. The EMT markers genes Twist, Snail, Cdh2 and Cdh 1 were determined by qRT-PCR, then normalized to GAPDH. E-CAD immunofluorescence staining for tumor tissues from ETP transfected MCF7 and ETPmAb4 treatment tumor. (FIG. 5C) MCF7 and ETP transfected MCF7 cells (2×10^6 cells) were implanted into nude mice. An estradiol pellet (0.72 mg) was implanted into nude mice. Then 20 mg/kg of antibody ETPmAb4 (twice a week), and 2.5 mg/kg of cisplatin (once a week) were injected after 10-days implantation for 6-weeks. Tumor volume was determined by caliper measurement. Data was represented as mean±SD (n=5/group), and *** p<0.0001 by ANOVA followed by Newman-Keuls multiple comparison test.
Animal experiments. NU/NU nude female mice were purchased from Charles River (Crl: NU-Foxnlnu; Strain Code 088 (Homozygous)). Breast cancer cells (2×10^6 cells) were implanted by intraductal injection. All cell lines were mixed on ice with 1×PBS and Matrigel. Then 100 μL of mixture was injected into mice. Tumors were measured twice a week, beginning 10 days after injection, and tumor volume was calculated by length×(width) 2/2 (mm^3).
Analysis of Tumor Progression. Tumor onset was monitored twice weekly by palpation. Tumor sizes were measured using a digital caliper twice weekly and the volumes were calculated as length× width2)/2. Inguinal tumors were weighted to determine tumor burden. Animals were sacrificed when the tumor burden visibly affected the host, or when the tumors reached the IACUC pre-determined limit of 20 mm along one axis.
As a next step, whether the anti-endotrophin antibodies effectively curb the aggressive tumor growth observed in endotrophin overexpressing MCF-7 cells was examined. To boost the growth rate of the tumor cells, these assays were performed in the presence of estradiol pellets. Cells (2×10^6 cells) were injected into nude mice and their tumor growth was monitored over time, based on a twice weekly injection of either a control monoclonal preparation, or ETPmAb4; in all cases, a total of 20 mg/kg of antibody was used. The dose dependence was tested by either injecting 20 mg/kg of control antibody, 20 mg/kg of ETPmAb4, or a mixture of the two with decreasing levels of control antibody mixed with increasing levels of ETPmAb4.
To test this, MCF7 cells were used with or without endotrophin overexpression, and the cells were transplanted into nude mice, in the presence of estradiol pellets (FIG. 5C). […] As expected, MCF7 cells harboring an excess in endotrophin grew very aggressively (FIG. 5C; red line).

B1: ETP-mAb4: rabbit monoclonal anti-human endotrophin antibody selected for further study; VH SEQ ID NO: 125, VL SEQ ID NO: 126 (antibody, V domains shown)
VH: SSRVKESGGDLVKPGASLTLTCKASGFSFSSGYYICWVRQAPGKGLEWIACIYGGNNNPYYANWVNGRFTTSKTSSTTVTLQMTNLTGADTATYFCARKDINIGGAYELWGPGTLVTISS
VL: ELVMTQTPASVSEPVGGTVTINCQASQSISSSYLSWYQQKPGQPPKLLIYKASTLASGVPSRFKGSGSGTQFSLTISDLECADAATYYCQYSDWANSYGNAFGGGTEVVVK
Turning to B1, under “20 mg/kg ETPmAb4 twice a week plus 2.5 mg/kg cisplatin once a week”, the “lesion growth, combination with cisplatinum” value is recorded as “lesion growth was reduced down to essentially baseline”. Also, under “20 mg/kg twice a week, estradiol pellet”, the “tumor growth at the highest dose” value is listed as “almost completely curbing the aggressive tumor growth”. Further, for the setting “2-20 mg/kg twice a week, estradiol pellet, vs control IgG”, the “rate of tumor growth” value was “significantly reduced in a dose-dependent fashion the rate of tumor growth over time”. For the same molecule, the “EMT signature in tumor tissue (Twist, Snail, Cdh2, Cdh1 qPCR)” value (antibody-treated tumors) is given as “reduced EMT signature”.
